The target of the test is T1, His-DUB3 (UniProt Q6R6M4 1-530).
T1 construct: cloned into PET28A; source: purified recombinant
T1 sequence (looked up): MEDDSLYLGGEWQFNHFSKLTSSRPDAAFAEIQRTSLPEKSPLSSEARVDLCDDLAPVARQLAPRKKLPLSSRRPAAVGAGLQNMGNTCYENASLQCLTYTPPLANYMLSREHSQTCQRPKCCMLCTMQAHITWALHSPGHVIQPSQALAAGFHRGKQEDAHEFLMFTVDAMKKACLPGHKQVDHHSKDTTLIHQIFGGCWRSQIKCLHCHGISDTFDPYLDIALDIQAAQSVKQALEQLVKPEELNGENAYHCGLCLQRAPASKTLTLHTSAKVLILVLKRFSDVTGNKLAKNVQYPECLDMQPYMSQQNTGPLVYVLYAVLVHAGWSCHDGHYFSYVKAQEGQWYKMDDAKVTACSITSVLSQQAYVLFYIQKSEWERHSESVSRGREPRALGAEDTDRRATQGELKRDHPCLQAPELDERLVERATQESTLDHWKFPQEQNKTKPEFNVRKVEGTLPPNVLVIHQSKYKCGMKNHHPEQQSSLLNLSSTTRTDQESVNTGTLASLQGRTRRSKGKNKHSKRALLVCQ
The experiment in a line: pull-down; purified recombinant GST or GST fusion protein and His-tagged protein incubated in vitro. The conditions noted are these: both partners purified.

B1: GST-CDK4 (enzyme, UniProt P11802 1-303, looked up)
chain: MATSRYEPVAEIGVGAYGTVYKARDPHSGHFVALKSVRVPNGGGGGGGLPISTVREVALLRRLEAFEHPNVVRLMDVCATSRTDREIKVTLVFEHVDQDLRTYLDKAPPPGLPAETIKDLMRQFLRGLDFLHANCIVHRDLKPENILVTSGGTVKLADFGLARIYSYQMALTPVVVTLWYRAPEVLLQSTYATPVDMWSVGCIFAEMFRRKPLFCGNSEADQLGKIFDLIGLPPEDDWPRDVSLPRGAFPPRGPRPVQSVVPEMEESGAQLLLEMLTFNPHKRISAFRALQHSYLHKDEGNPE
notes: also called CDK4/6; source: purified recombinant
As to B1, the binding result is reported as “binds”.

The values above are taken from PMC5228031, “CDK4/6-dependent activation of DUB3 regulates cancer metastasis through SNAIL1” (Nature Communications, 2017).
